# Measured values as given in paper PMC7278352.
# Target: pre-formed paclitaxel-stabilized microtubules (tubulin isolated from porcine brain) (porcine) (UniProt P02550)
# Test: co-sedimentation; pre-formed paclitaxel-stabilized MTs (100 ug/ml tubulin) incubated 30 min at room temperature with 250 ug/ml protein in General tubulin buffer (80 mM PIPES, 0.5 mM EGTA, 2 mM MgCl2, pH 6.9) with 1 mM GTP and 5% glycerol; spun through a 60% glycerol cushion at 100,000 x g for 40 min; band intensity in pellet and supernatant on SDS-PAGE, 5 repeats
# Chain of UniProt P02550 (P02550 whole entry, looked up): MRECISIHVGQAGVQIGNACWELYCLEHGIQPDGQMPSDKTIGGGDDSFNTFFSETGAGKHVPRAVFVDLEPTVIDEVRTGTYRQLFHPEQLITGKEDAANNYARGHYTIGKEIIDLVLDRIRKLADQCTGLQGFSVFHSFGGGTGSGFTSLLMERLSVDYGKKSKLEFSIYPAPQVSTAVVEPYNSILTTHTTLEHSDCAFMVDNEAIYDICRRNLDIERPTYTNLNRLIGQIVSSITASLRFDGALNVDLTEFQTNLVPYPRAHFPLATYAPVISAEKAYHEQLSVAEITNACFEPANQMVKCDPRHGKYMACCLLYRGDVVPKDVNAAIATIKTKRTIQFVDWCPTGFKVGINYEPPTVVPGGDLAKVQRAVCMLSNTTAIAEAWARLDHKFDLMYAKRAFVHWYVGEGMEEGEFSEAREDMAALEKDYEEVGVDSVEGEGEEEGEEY
substance,measurement,value
microtubule-associated protein fraction (MAPF),percent of protein pelleted with MTs,78%
